B1: Ribonuclease, P00648 (parent)
chain: MMKMEGIALKKRLSWISVCLLVLVSAAGMLFSTAAKTETSSHKAHTEAQVINTFDGVADYLQTYHKLPDNYITKSEAQALGWVASKGNLADVAPGKSIGGDIFSNREGKLPGKSGRTWREADINYTSGFRNSDRILYSSDWLIYKTTDHYQTFTKIR

Variants of: B1
Conditions: Bacillus amyloliquefaciens; pH 6.3; 25 °C; Urea; Fluorescence; MES 50 mM; reversible: yes; structure 1BNI; whole UniProt chain shown

| Variant | ddG of mutation (higher = less stable) [kcal/mol] |
| --- | --- |
| T63S | 1.87 |
| T53A | 2.23 |
| I143A | 3.52 |
| I143V | 0.98 |
| Y125F | 1.5 |
| I135A | 4.46 |
| T73A | 2.14 |
| L61A | 4.8 |

Same assay, conditions: Bacillus amyloliquefaciens; pH 6.3; 25 °C; Thermal; Fluorescence; MES 50 mM; structure 1BNI; whole UniProt chain shown

| Variant | ddG of mutation (higher = less stable) [kcal/mol] | unfolding free energy [kcal/mol] |
| --- | --- | --- |
| D122N | 5 | 5.2 |
| D101A | 3.3 | 6.9 |
| D101N | 2.6 | 7.6 |

Same assay, conditions: Bacillus amyloliquefaciens; pH 6.3; 25 °C; Urea; Fluorescence; MES 1.00 M; NaCl 613 mM; reversible: yes; structure 1BNI; whole UniProt chain shown

| Variant | ddG of mutation (higher = less stable) [kcal/mol] |
| --- | --- |
| Y60A | 3.71 |
| Y64A | 2.26 |
| Y60A Y64A | 4.64 |

Same assay, conditions: Bacillus amyloliquefaciens; pH 2.7; Thermal; CD; glycine-HCl 20 mM; KCl 200 mM; reversible: yes; structure 1BNI; whole UniProt chain shown

| Variant | Tm [°C] |
| --- | --- |
| I51A I98V | 25.7 |

Same assay, conditions: Bacillus amyloliquefaciens; pH 2.7; Thermal; DSC; glycine-HCl 20 mM; KCl 200 mM; reversible: yes; structure 1BNI; whole UniProt chain shown

| Variant | Tm [°C] |
| --- | --- |
| I51A I98V | 25.4 |

Same assay, conditions: Bacillus amyloliquefaciens; pH 6.3; 25 °C; Urea; Fluorescence; MES 19.3 mM; reversible: yes; structure 1BNI; whole UniProt chain shown

| Variant | ddG of mutation (higher = less stable) [kcal/mol] | denaturant midpoint (higher = more stable) [M] | unfolding free energy [kcal/mol] |
| --- | --- | --- | --- |
| I143A | 4 | 2.24 | 6.5 |

Same assay, conditions: Bacillus amyloliquefaciens; pH 6.3; 25 °C; Urea; Fluorescence; MES 1 M; structure 1BNI; whole UniProt chain shown

| Variant | ddG of mutation (higher = less stable) [kcal/mol] | unfolding free energy [kcal/mol] |
| --- | --- | --- |
| A79G | 0.91 | 7.99 |
| K74A | -0.53 | 9.43 |

Same assay, conditions: Bacillus amyloliquefaciens; pH 6.15; 25 °C; Urea; Fluorescence; MES 19.3 mM; reversible: yes; structure 1BNI; whole UniProt chain shown

| Variant | ddG of mutation (higher = less stable) [kcal/mol] | denaturant midpoint (higher = more stable) [M] | unfolding free energy [kcal/mol] |
| --- | --- | --- | --- |
| F54L | 4.1 | 2.42 | 6.4 |

Same assay, conditions: Bacillus amyloliquefaciens; pH 2.7; Thermal; DSC; glycine-HCl 20 mM; reversible: yes; structure 1BNI; whole UniProt chain shown

| Variant | Tm [°C] |
| --- | --- |
| S132C H149C | 47.4 |

Same assay, conditions: Bacillus amyloliquefaciens; pH 6.3; 25 °C; Urea; Fluorescence; MES 50 mM; structure 1BNI; whole UniProt chain shown

| Variant | ddG of mutation (higher = less stable) [kcal/mol] |
| --- | --- |
| E120Q | 2.7 |
| E120F | 2.1 |
| E120W | 2.2 |

Reference: FireProtDB
